# Results as given in US20260209325A1 (SCHOLAR ROCK, published 2026).
# Where two headings read alike, the source gives them in different places.
# Columns and labels:
# mouse GDF-11 = mouse GDF-11 (mouse, UniProt Q9Z1W4 297-405, limits assumed); test: plate binding assay, OD 450 nm, one antibody concentration that is not given, on Mu-GDF-11 (method not described in the text)
# human GDF-11 = human GDF-11 (human, UniProt O95390 299-407, limits assumed); test: plate binding assay, OD 450 nm, one antibody concentration that is not given, on Hu-GDF-11 (method not described in the text)
# human pro-myostatin [1] = target: T1, human pro-myostatin (human, UniProt O14793 24-375, biotinylated (in the SPR assay)); test: plate binding assay, OD 450 nm, antibody titrated 0.0003 to 100 nM, panel 'Hu-Pro-GDF-8 Plate 3' (method not described in the text)
# T1 construct: Disulfide-linked homodimer; also called proGDF8 (human)
# murine pro-myostatin [2] = target: T2, murine pro-myostatin (mouse, UniProt O08689 25-376, biotinylated (in the SPR assay)); test: plate binding assay, OD 450 nm, antibody titrated 0.0003 to 100 nM, panel 'Mu-Pro-GDF-8 Plate 3' (method not described in the text)
# T2 construct: also called proGDF8 (mouse); mouse pro-myostatin
# human pro-myostatin [3] = target: T1, human pro-myostatin; test: plate binding assay, OD 450 nm, antibody titrated 0.0003 to 100 nM, panel 'Hu-Pro-GDF-8 Plate 1' (method not described in the text)
# murine pro-myostatin [4] = target: T2, murine pro-myostatin; test: plate binding assay, OD 450 nm, antibody titrated 0.0003 to 100 nM, panel 'Mu-Pro-GDF-8 Plate 1' (method not described in the text)
# cyno pro-myostatin [5] = target: T3, cyno pro-myostatin (cynomolgus monkey, Biotinylated for capture in the SPR assay (site not stated). The native form is a disulfide-linked homodimer, partly furin-cleaved; one chain is given.); test: plate binding assay, OD 450 nm, antibody titrated 0.0003 to 100 nM, panel 'Cyno-Pro-GDF-8 Plate 3' (method not described in the text)
# T3 construct: also called proGDF8 (cynomolgus); cynomolgus monkey pro-myostatin
# human pro-myostatin [6] = target: T1, human pro-myostatin; test: cell-based or functional assay
# [7] = target: T4, recombinant human latent myostatin (human, UniProt O14793 24-375, biotinylated (in the Octet pH assay only)); test: cell-based or functional assay
# cyno pro-myostatin [8] = target: T3, cyno pro-myostatin; test: SPR Biacore 8K, biotin-antigen captured
# murine pro-myostatin [9] = target: T2, murine pro-myostatin; test: SPR Biacore 8K, biotin-antigen captured
# human pro-myostatin [10] = target: T1, human pro-myostatin; test: SPR Biacore 8K, biotin-antigen captured
# [11] = target: T4, recombinant human latent myostatin; test: cell-based or functional assay; remark: listed apart in the source
# [12] = target: T4, recombinant human latent myostatin; test: BLI (Octet Red384): streptavidin biosensors loaded with biotinylated human latent myostatin, antibody association 300 s, dissociation in PBS at pH 7.4 or pH 5.5
# Description: (§1) Binding was performed at pH 7.4 and dissociation at pH 5.5 in an Octet Red384@assay. Streptavidin biosensors were baselined in 1x kinetics buffer (KB) (Sartorius) for one minute, then loaded with 100 nM biotinylated human latent myostatin for five minutes, followed by another baseline step of one minute in 1x KB. Binding of test antibodies was performed for five minutes and then dissociation was performed in PBS at either pH 7.4 or pH 5.5 for five minutes. Analysis was performed using a partial fit, in which full dissociation was projected. Kd at pH 5.5 was divided by Kd at pH 7.4 to calculate pH sensitivity.
# [13] = target: T4, recombinant human latent myostatin; test: cell-based or functional assay; remark: listed apart in the source
# human pro-myostatin [14] = target: T1, human pro-myostatin; test: Ab KD, summary Table 11; method and antigen not stated there
# [15] = target: T4, recombinant human latent myostatin; test: BLI (Octet Red384): streptavidin biosensors loaded with biotinylated human latent myostatin, antibody association 300 s, dissociation in PBS at pH 7.4 or pH 5.5; remark: listed apart in the source
# Description: as §1
# cyno pro-myostatin [16] = target: T3, cyno pro-myostatin; test: plate binding assay, absorbance at 450 nm, antibody titrated 100 to about 0.002 nM, panel 'Cyno Pure Pro-GDF-8' (method not described in the text)
# human pro-myostatin [17] = target: T1, human pro-myostatin; test: plate binding assay, absorbance at 450 nm, antibody titrated 100 to about 0.002 nM, panel 'Human Pure Pro-GDF-8' (method not described in the text)
# mouse GDF-11, sequence (Q9Z1W4 297-405 limits assumed): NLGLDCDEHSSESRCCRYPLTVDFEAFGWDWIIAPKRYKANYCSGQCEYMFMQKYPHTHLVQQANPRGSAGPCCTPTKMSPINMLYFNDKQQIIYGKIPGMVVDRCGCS
# human GDF-11, sequence (O95390 299-407 limits assumed): as the sequence (Q9Z1W4 297-405 limits assumed) above
Binder,binding result (mouse GDF-11),binding result (human GDF-11),IC50 (nM) Pro + Furin (human pro-myostatin [6]) [nM],IC50 (nM) Latent + mTLL2 [7] [nM],Kd (cyno pro-myostatin [8]) [nM],koff (cyno pro-myostatin [8]) [s⁻¹],kon (cyno pro-myostatin [8]) [M⁻¹ s⁻¹],Kd (murine pro-myostatin [9]) [nM],koff (murine pro-myostatin [9]) [s⁻¹],kon (murine pro-myostatin [9]) [M⁻¹ s⁻¹],Kd (human pro-myostatin [10]) [nM],kon (human pro-myostatin [10]) [M⁻¹ s⁻¹],also measured
"Ab110 (antibody, human IgG4 S228P, kappa, V domains shown) VH: QVQLVQSGAEVKKPGASVKVSCKVSEYTFTNYDIHWVRQAPGKGLEWMGGISAYHGNAIYAQKFQGRVTMTEDTSTDTAYMELSSLKSEDTAVYYCARDRVRRDYYNFGMDVWGQGTTVTVSS VL: DIQMTQSPSSVSASVGDRVTITCRASEDITSYLAWYQQKPGKAPKLLIYDVSSLQSGVPSRFSGSGSGTDFTLTISSLQPEDFANYYCLQHNAYPYGFGGGTKVEIKR",,,,,,,,,,,,,EC50 (read off the curve) (human pro-myostatin [3]): ~0.5 nM
"Ab122 (antibody, human IgG4 S228P, kappa, V domains shown, The light chain is printed ending ...NRGE, without the last C) VH: QVTLRESGPALVKPTQTLTLTCTVSGGSLSSGGSYVNWIRQPPGKALEWLAMTDWDADNIVYNSALKSRLTISKDTSKNQVVLTMTNMDPVDTATYYCAHRQNVDSYGYWGDAFDIWGQGTMVTVSS VL: DIVMTQSPDSLAVSLGERATINCKSSQSVLYSADNKNYLAWYQQKPGQPPKLLIYDASSLENGVPDRFSGSGSGTDFTLTISSLQAEDVAVYYCQQGHLFPYSFGGGTKVEIKR",,,,,,,,,,,,,EC50 (read off the curve) (cyno pro-myostatin [5]): ~0.2 nM; EC50 (read off the curve) (human pro-myostatin [1]): ~0.5 nM; EC50 (read off the curve) (murine pro-myostatin [2]): ~0.6 nM
"Ab109 (antibody, human IgG4 S228P, kappa, V domains shown, human IgG4 in the EM experiment; also called Ab109 Human IgG4) VH: EVQLVESGGGLVQPGGSLRLSCAASGFTFSSYGMSWVRQAPGKGLELVASFTGSGGTYYPDSVKGRFTISRDNAKNSLYLQMNSLRAEDTAVYYCARDLLIRFLEWSHYYGMDVWGQGTTVTVSS VL: DIVMTQSPLSLPVTPGEPASISCRSSQSLLHSSGHNFLHWYLQKPGQSPQLLIYEVSNRVSGVPDRFSGSGSGTDFTLKISRVEAEDVGVYYCMQQTQYPPTFGGGTKVEIKR",,,0.214,0.145,0.128,0.000925,7.23e+06,0.197,0.00134,6.81e+06,0.138,6.62e+06,"IC50 of inhibition of myostatin activation by mTLL-2 (functional ELISA, FIG. 1A) [11]: 0.38 nM; IC50 of inhibition of myostatin activation by mTLL-2 (functional ELISA, FIG. 1B) [11]: 0.33 nM; fold difference in off-rate (Kd at pH 5.5 / Kd at pH 7.4) [12]: 25 fold; mTLL2 IC50 [13]: 0.145 nM; Kd (human pro-myostatin [14]): 0.579 nM; fold difference in off-rate (Kd at pH 5.5 / Kd at pH 7.4) [15]: 18.4 fold"
"Ab132 (antibody, human IgG4 S228P, kappa, V domains shown) VH: EVQLVESGGGLVQPGGSLRLSCAASGFTFSSYGMSWVRQAPGKGLELVASFTGSGGTYYPDSVKGRFTISRDNAKNSLYLQMNSLRAEDTAVYYCARDLLIRFLEWSHYYGMDVWGQGTTVTVSS VL: DIVMTQSPLSLPVTPGEPASISCRSSQSLLHSSGHNFLHWYLQKPGQSPQLLIYEVSNRVSGVPDRFSGSGSGTDFTLKISRVEAEDVGVYYCQQQTQYPPTFGGGTKVEIKR",,,,,,,,,,,,,fold difference in off-rate (Kd at pH 5.5 / Kd at pH 7.4) [12]: 24 fold; mTLL2 IC50 [13]: 0.144 nM; Kd (human pro-myostatin [14]): 0.926 nM
"Ab106 (antibody, human IgG4 S228P, kappa, V domains shown) VH: EVQLVESGGGLVQPGGSLRLSCAASGSAFSSYGMSWVRQAPGKGLELVASINSNGGSTYYPDSVKGRFTISRDNAKNSLYLQMNSLRAEDTAVYYCARDLLVRFLEWAGYYGMDVWGQGTTVTVSS VL: DIVMTQSPLSLPVTPGEPASISCRSSQSLLHSSGHNFLHWYLQKPGQSPQLLIYEVSNRVSGVPDRFSGSGSGTDFTLKISRVEAEDVGVYYCMQQTQYPPTFGGGTKVEIKR",,,0.233,0.163,0.152,0.000291,1.91e+06,0.162,0.000317,1.96e+06,0.112,2e+06,EC50 (read off the curve) (human pro-myostatin [17]): ~0.2 nM; EC50 (read off the curve) (cyno pro-myostatin [16]): ~0.2 nM; koff (human pro-myostatin [10]): 0.000224 s⁻¹

# Continued, in another order:
binding result (mouse GDF-11),binding result (human GDF-11),IC50 (nM) Pro + Furin (human pro-myostatin [6]) [nM],IC50 (nM) Latent + mTLL2 [7] [nM],Kd (cyno pro-myostatin [8]) [nM],koff (cyno pro-myostatin [8]) [s⁻¹],kon (cyno pro-myostatin [8]) [M⁻¹ s⁻¹],Kd (murine pro-myostatin [9]) [nM],koff (murine pro-myostatin [9]) [s⁻¹],kon (murine pro-myostatin [9]) [M⁻¹ s⁻¹],Kd (human pro-myostatin [10]) [nM],kon (human pro-myostatin [10]) [M⁻¹ s⁻¹],Binder,also measured
no binding,no binding,,,,,,,,,,,"Ab126 (antibody, human IgG4 S228P, kappa, V domains shown) VH: EVQLVESGGGLVQPGGSLRLSCTASSFTFSNYAMDWVRQAPGKGLEWVSYISSDASTTYYADSVKGRFTISRDNAKNTLYLQMNSLRAEDTAVYYCARDGGYNPGIFDYWGQGTLVTVSS VL: DIQMTQSPSSLSASVGDRVTITCQASQSIGRWLNWYQQKPGKAPKLLIYDASILQTGVPSRFSGSGSGTDFTFTISSLQPEDIATYYCQQSFTTPPLTFGGGTKVEIKR",binding result (human pro-myostatin [1]): binds; binding result (murine pro-myostatin [2]): binds
no binding,no binding,,,,,,,,,,,"Ab111 (antibody, human IgG4 S228P, kappa, V domains shown) VH: QVQLVQSGAEVKKPGASVKVSCKVSGYTFTSNDIHWVRQAPGKGLEWMGGIFPIFGTTIYAQKFQGRVTMTEDTSTDTAYMELSSLKSEDTAVYYCAREGLGYDFDYWGQGTLVTVSS VL: DIQMTQSPSSVSASVGDRVTITCRASQNIGNWLAWYQQKPGKAPKLLIYSASALQSGVPSRFSGSGSGTDFTLTISSLQPEDFANYYCQQSYGAPMYSFGGGTKVEIKR",binding result (human pro-myostatin [3]): binds; binding result (murine pro-myostatin [4]): binds
no binding,no binding,0.195,0.14,0.327,0.000269,821000,0.325,0.000265,815000,0.262,813000,"Ab127 (antibody, human IgG4 S228P, kappa, V domains shown) VH: EVQLVESGGGLVQPGGSLRLSCTASGFTFGSYPMDWVRQAPGKGLEWVSYISGRGDVTYYADSVKGRFTISRDNAKNTLYLQMNSLRAEDTAVYYCAKVQSPSELLWFGELLPVDYWGQGTLVTVSS VL: DIQMTQSPSSLSASVGDRVTITCQASQVIKTWLNWYQQKPGKAPKLLIYDASNLQRGVPSRFSGSGSGTDFTFTISSLQPEDIATYYCQQSASTPITFGGGTKVEIKR",EC50 (read off the curve) (cyno pro-myostatin [5]): ~0.3 nM; koff (human pro-myostatin [10]): 0.000213 s⁻¹; EC50 (read off the curve) (human pro-myostatin [1]): ~0.4 nM; EC50 (read off the curve) (murine pro-myostatin [2]): ~0.6 nM
,,,0.154,,,,,,,,,"Ab135 (antibody, human IgG4 S228P, kappa, V domains shown) VH: EVQLVESGGGLVQPGGSLRLSCAASGSAFSSYGMSWVRQAPGKGLELVASINSNGGSTYYPDSVKGRFTISRDNAKNSLYLQMNSLRAEDTAVYYCARDLLVTFLRWSHYYGMDVWGQGTTVTVSS VL: DIVMTQSPLSLPVTPGEPASISCRSSQSLLHSSGHNFLHWYLQKPGQSPQLLIYEVSNRVSGVPDRFSGSGSGTDFTLKISRVEAEDVGVYYCMQQTQYPPTFGGGTKVEIKR",EC50 (read off the curve) (cyno pro-myostatin [16]): ~0.3 nM
